B1: BBSome complex member BBS4 (Homo sapiens), Q96RK4 (parent)
chain: MAEERVATRTQFPVSTESQKPRQKKAPEFPILEKQNWLIHLHYIRKDYEACKAVIKEQLQETQGLCEYAIYVQALIFRLEGNIQESLELFQTCAVLSPQSADNLKQVARSLFLLGKHKAAIEVYNEAAKLNQKDWEISHNLGVCYIYLKQFNKAQDQLHNALNLNRHDLTYIMLGKIHLLEGDLDKAIEVYKKAVEFSPENTELLTTLGLLYLQLGIYQKAFEHLGNALTYDPTNYKAILAAGSMMQTHGDFDVALTKYRVVACAVPESPPLWNNIGMCFFGKKKYVAAISCLKRANYLAPFDWKILYNLGLVHLTMQQYASAFHFLSAAINFQPKMGELYMLLAVALTNLEDIENAKRAYAEAVHLDKCNPLVNLNYAVLLYNQGEKKNALAQYQEMEKKVSLLKDNSSLEFDSEMVEMAQKLGAALQVGEALVWTKPVKDPKSKHQTTSTSKPASFQQPLGSNQALGQAMSSAAAYRTLPSGAGGTSQFTKPPSLPLEPEPAVESSPTETSEQIREK
partner: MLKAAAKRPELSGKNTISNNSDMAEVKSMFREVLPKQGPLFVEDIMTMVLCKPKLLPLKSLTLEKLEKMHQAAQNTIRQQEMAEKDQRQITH

Variants of B1 are the subject of the test. As to conditions: with bbip1_human BBIP1, A8MTZ0.
With A364T, the “effect of a mutation on the interaction” value was “disrupting interaction strength”.

With A364E, the “effect of a mutation on the interaction” value is “with no effect”.

D353G: the “effect of a mutation on the interaction” value is given as “disrupting interaction strength”.

As for D353A, the “effect of a mutation on the interaction” value is recorded as “with no effect”.

With D353E, the “effect of a mutation on the interaction” value was “with no effect”.

Turning to D353K, the “effect of a mutation on the interaction” value is reported as “with no effect”.

As for T349K, the “effect of a mutation on the interaction” value was “with no effect”.

With T349E, the “effect of a mutation on the interaction” value is given as “with no effect”.

Consider T349A, for which the “effect of a mutation on the interaction” value is on record as “with no effect”.

With L373A, the “effect of a mutation on the interaction” value is “with no effect”.

Take L373E: the “effect of a mutation on the interaction” value is listed as “with no effect”.

With L373S, the “effect of a mutation on the interaction” value was “disrupting interaction strength”.

Take L373K: the “effect of a mutation on the interaction” value is recorded as “with no effect”.

Turning to A345E, the “effect of a mutation on the interaction” value is listed as “with no effect”.

Turning to A345T, the “effect of a mutation on the interaction” value is reported as “disrupting interaction strength”.

In the case of A345K, the “effect of a mutation on the interaction” value is listed as “with no effect”.

In the case of A345V, the “effect of a mutation on the interaction” value is listed as “disrupting interaction strength”.

L348R: the “effect of a mutation on the interaction” value is reported as “disrupting interaction strength”.

Turning to L348K, the “effect of a mutation on the interaction” value is “with no effect”.

On to L348A, for which the “effect of a mutation on the interaction” value is “with no effect”.

As to L348E, the “effect of a mutation on the interaction” value is reported as “with no effect”.

For the variant L348T, the “effect of a mutation on the interaction” value was “disrupting interaction strength”.

As to L348P, the “effect of a mutation on the interaction” value was “disrupting interaction strength”.

Turning to V380E, the “effect of a mutation on the interaction” value is “with no effect”.

Consider V380K, for which the “effect of a mutation on the interaction” value is recorded as “with no effect”.

On to V380A, for which the “effect of a mutation on the interaction” value is listed as “disrupting interaction strength”.

Regarding N375A, the “effect of a mutation on the interaction” value is “with no effect”.

Regarding N375K, the “effect of a mutation on the interaction” value is reported as “with no effect”.

For the variant N375E, the “effect of a mutation on the interaction” value is “with no effect”.

Regarding E355K, the “effect of a mutation on the interaction” value is on record as “with no effect”.

Turning to E355A, the “effect of a mutation on the interaction” value is reported as “with no effect”.

A357E: the “effect of a mutation on the interaction” value is “with no effect”.

Take A357V: the “effect of a mutation on the interaction” value is on record as “disrupting interaction strength”.

With A357K, the “effect of a mutation on the interaction” value was “with no effect”.

D368E: the “effect of a mutation on the interaction” value is reported as “with no effect”.

Consider D368K, for which the “effect of a mutation on the interaction” value was “with no effect”.

Turning to D368A, the “effect of a mutation on the interaction” value is given as “with no effect”.

On to D368G, for which the “effect of a mutation on the interaction” value is given as “disrupting interaction strength”.

On to K369A, for which the “effect of a mutation on the interaction” value is “with no effect”.

On to K369E, for which the “effect of a mutation on the interaction” value is “with no effect”.

For E363K, the “effect of a mutation on the interaction” value is “with no effect”.

For the variant E363A, the “effect of a mutation on the interaction” value was “with no effect”.

For E363G, the “effect of a mutation on the interaction” value is “disrupting interaction strength”.

Consider G386E, for which the “effect of a mutation on the interaction” value was “with no effect”.

Take G386A: the “effect of a mutation on the interaction” value is “with no effect”.

For the variant G386K, the “effect of a mutation on the interaction” value was “with no effect”.

With L381A, the “effect of a mutation on the interaction” value was “with no effect”.

For the variant L381K, the “effect of a mutation on the interaction” value is listed as “with no effect”.

On to L381E, for which the “effect of a mutation on the interaction” value is “with no effect”.

Take L381P: the “effect of a mutation on the interaction” value is on record as “disrupting interaction strength”.

With N384Y, the “effect of a mutation on the interaction” value was “disrupting interaction strength”.

For N384K, the “effect of a mutation on the interaction” value is listed as “with no effect”.

On to N384E, for which the “effect of a mutation on the interaction” value was “with no effect”.

Take N384A: the “effect of a mutation on the interaction” value is listed as “with no effect”.

A391E: the “effect of a mutation on the interaction” value was “with no effect”.

As for A391K, the “effect of a mutation on the interaction” value is on record as “with no effect”.

Turning to L367P, the “effect of a mutation on the interaction” value was “disrupting interaction strength”.

On to L367A, for which the “effect of a mutation on the interaction” value is on record as “with no effect”.

Regarding L367K, the “effect of a mutation on the interaction” value is “with no effect”.

Take L367E: the “effect of a mutation on the interaction” value is recorded as “with no effect”.

In the case of N377C, the “effect of a mutation on the interaction” value is “disrupting interaction strength”.

For N377D, the “effect of a mutation on the interaction” value is reported as “disrupting interaction strength”.

As for N377S, the “effect of a mutation on the interaction” value is reported as “disrupting interaction strength”.

Regarding N377A, the “effect of a mutation on the interaction” value is on record as “with no effect”.

N377R: the “effect of a mutation on the interaction” value was “disrupting interaction strength”.

On to N377I, for which the “effect of a mutation on the interaction” value is “disrupting interaction strength”.

Regarding N377E, the “effect of a mutation on the interaction” value is listed as “with no effect”.

Regarding N377K, the “effect of a mutation on the interaction” value was “with no effect”.

In the case of A379K, the “effect of a mutation on the interaction” value is listed as “with no effect”.

With A379E, the “effect of a mutation on the interaction” value is reported as “with no effect”.

Take A379V: the “effect of a mutation on the interaction” value is “disrupting interaction strength”.

In the case of V374K, the “effect of a mutation on the interaction” value is recorded as “with no effect”.

For V374A, the “effect of a mutation on the interaction” value is on record as “with no effect”.

V374E: the “effect of a mutation on the interaction” value was “with no effect”.

As to P372K, the “effect of a mutation on the interaction” value is “with no effect”.

P372E: the “effect of a mutation on the interaction” value is “with no effect”.

In the case of P372A, the “effect of a mutation on the interaction” value is on record as “with no effect”.

P372S: the “effect of a mutation on the interaction” value was “disrupting interaction strength”.

For P372L, the “effect of a mutation on the interaction” value is recorded as “disrupting interaction strength”.

As for L382A, the “effect of a mutation on the interaction” value is “with no effect”.

For L382P, the “effect of a mutation on the interaction” value is given as “disrupting interaction strength”.

For L382E, the “effect of a mutation on the interaction” value is “with no effect”.

With L382K, the “effect of a mutation on the interaction” value was “with no effect”.

The record behind these values is IntAct's records for PubMed 29039417.
